The results in this text go back to patent US20240294644A1 (BLUEFIN BIOMEDICINE, published 2024).

Numbering of substitutions follows the chain as printed.

Sequences and labels used below:
T1: cynomolgus monkey VTCN1 protein (cynomolgus monkey, UniProt A0A2K5U6P5 25-259)
T1 construct: The construct and its tag are not described; also called cyno VTCN1
T1 sequence: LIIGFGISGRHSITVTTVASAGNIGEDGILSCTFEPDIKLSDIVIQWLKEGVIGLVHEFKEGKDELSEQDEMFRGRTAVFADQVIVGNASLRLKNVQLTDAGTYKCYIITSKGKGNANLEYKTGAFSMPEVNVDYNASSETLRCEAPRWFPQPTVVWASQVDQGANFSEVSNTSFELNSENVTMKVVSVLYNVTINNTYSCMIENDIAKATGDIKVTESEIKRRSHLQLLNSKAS

T2: recombinant human VTCN1-his protein (human, UniProt Q7Z7D3 25-259, limits assumed)
T2 construct: also called human VTCN1 protein; recombinant VTCN1
T2 sequence: T1 sequence with I53L

T3: human VTCN1 expressed on cells (293-VTCN1 cells; SKBR3, MX-1 and ZR-75-1 cells that express it naturally) (human, UniProt Q7Z7D3 25-282)
T3 construct: The cDNA was bought from Origene
T3 sequence: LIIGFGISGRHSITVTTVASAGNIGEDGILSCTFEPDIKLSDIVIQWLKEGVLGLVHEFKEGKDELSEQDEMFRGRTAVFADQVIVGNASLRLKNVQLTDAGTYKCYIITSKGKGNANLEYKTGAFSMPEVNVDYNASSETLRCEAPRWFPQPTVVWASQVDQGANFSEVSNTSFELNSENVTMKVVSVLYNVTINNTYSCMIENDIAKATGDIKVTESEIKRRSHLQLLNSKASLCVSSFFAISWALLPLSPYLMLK

T4: mouse VTCN1 expressed on 293 cells (mouse, UniProt Q7TSP5 25-257)
T4 construct: whole, on cells
T4 sequence (looked up): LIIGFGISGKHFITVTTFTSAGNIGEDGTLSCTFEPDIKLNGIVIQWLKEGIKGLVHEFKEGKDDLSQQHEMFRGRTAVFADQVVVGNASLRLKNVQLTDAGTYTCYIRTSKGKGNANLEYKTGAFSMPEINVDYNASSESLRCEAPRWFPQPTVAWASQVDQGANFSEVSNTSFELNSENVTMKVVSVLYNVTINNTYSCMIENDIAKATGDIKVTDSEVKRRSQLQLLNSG

T5: cynomolgus monkey VTCN1 expressed on 293 cells (cynomolgus monkey, UniProt A0A2K5U6P5 25-282)
T5 construct: whole, on cells
T5 sequence: T3 sequence with L53I, F242L, S252A

T6: mouse VTCN1 protein (mouse, UniProt Q7TSP5 25-257, limits assumed)
T6 construct: The construct and its tag are not described
T6 sequence (looked up): T4 sequence (looked up)

B1: 12B5_44B1 (antibody, V domains shown)
VH: QVQLVQSGAEVKKPGSSMKVSCKASGDTFSSYAISWVRQAPGQGLEWMAGIIPVFGTAHNAQKFQGRVTITADKSTSTAYMELSSLRSEDTAVYYCTRGGPYFDYWGQGTLVTVSS
VL: EIVMTQSPATLSVSPGERAALSCRASQSVSSNLAWYQQKPGQAPRLLIYGVSTRATGIPDRFNGSGSGTEFTLTISSLQSEDFGAYYCQQYKKWPFIFGPGTKLEIK
notes: Fully human antibody
B2: 14D6_60B5 (antibody, V domains shown)
VH: QVQLVHSGAEVKRPGSSVKVSCKASGGTFSSYAISWVRQAPGQGLEWMGGIIPIFGIANYAQKFQGRVTIIADKSTRTAYMELSSLRSEDTAVYYCARGGPYFDYWGQGILVTVSS
VL: B1 VL with A20T, V51A, D60A, N63S, G84A, A85V, K92N, I97T, L104V, E105D
notes: Fully human antibody
B3: 16H12_60B4 (antibody, V domains shown)
VH: B2 VH with L4V, H6Q, R13K, G27D, S31N, A58T, A97S
VL: B1 VL with A20T, V51A, D60A, N63S, G84A, A85V, I97T, L104V, E105D
notes: Fully human antibody
B4: 4C7_63A1 (antibody, V domains shown)
VH: QVQLQESGPGLVKPSGTLSLTCAVSGGSISSSNWWSWVRQPPGKGLEAIGEIYHSGNTNYNPSLKSRVTISVDKSKNQFSLKLSSVTAADTAIYYCARDGYSSGWYWGYFDYWGQGTLVTVSS
VL: EIVMTQSPATLSVSPGERATLSCRASQSVNSNLAWYQQKPGQAPWLLIYGASTRATGIPARFSGSGSGTEFTLTISSLQSEDFAVYYCQQYNHWPYTFGQGTKLEIK
notes: Fully human antibody
B5: 7G7_44C6 (antibody, V domains shown)
VH: QVQLQESGPGLVKPSETLSLTCTVSGGSISHYYWSWIRQPPGKGLEWIGYIYYSGPTNYNPSLKSRVTISVDTSKNQFSLKLSSVTAADTAVYYCARTYYYGSGSFPDAFDIWGQGTMVTVSS
VL: KIVLTQSPATLSLSPGERATLSCRASQSVSSYLAWYQQTPGQAPRLLIYDASNRATGIPARFSVSGSGTDFTLTISSLEPEDFAVYYCQQRSSWPLTFGGGTKLEIK
notes: Fully human antibody
B6: 13H9_44D2 (antibody, V domains shown)
VH: QVQLQESGPGLVKPSETLSLTCTVSGGSISSYYWSWIRQPPGKGLEWIGYIYYSGSTNNNPSLKSRVTISVDTSKNQFSLKLISVTAADTAVYYCARVYNNYDWGFDYWGQGTLVTVSS
VL: B4 VL with N30S, W45R, S76R, N92H, H93N, Y96L, Q100G
notes: Fully human antibody
B7: hu6D9_57A3 (antibody, V domains shown)
VH: QVQLVESGGGVVQPGRSLRLSCAVSGFSLTSYGVQWVRQAPGKGLEWLGVIWSSGSTDYNAAFLSRLTISKDNSKNTVYFQMNSLRAEDTAVYYCARDVTTIVEGFAHWGQGTLVTVSS
VL: DIQMTQSPSSLSASVGDRVTITCKASEKVGTYVSWYQQKPGKAPKLLIYGASNRYTGVPSRFSGSGSGTDFTLTISSLQPEDFATYYCGQTYSYPFTFGQGTKLEIK
notes: Humanized 6D9
B8: hu6D9_66B1 (antibody, V domains shown)
VH: B7 VH with S28T, L29F, T30S
VL: B7 VL
notes: Humanized 6D9
B9: hu6D9_57A4 (antibody, V domains shown)
VH: B7 VH with G9P, G49A, N76S
VL: B7 VL
notes: Humanized 6D9
B10: hu6D9_66C2 (antibody, V domains shown)
VH: B7 VH with Q1E, V11L, R16G, N73T
VL: B7 VL with G66R, L104V
notes: Humanized 6D9
B11: hu6D9_57A5 (antibody, V domains shown)
VH: B7 VH with G49A
VL: B7 VL
notes: Humanized 6D9

In one assay the target is T1, cynomolgus monkey VTCN1 protein. Description: BLI (OCTET), cynomolgus monkey VTCN1 protein.
In turn, B1 displayed a Kd of 2 nM.
The same measure, in the same setting: for B2 the value was 5 nM; for B3, 1 nM.
Still for that read-out and setting: in the case of B4 it was 47 nM.

The target in the next assay is T2, recombinant human VTCN1-his protein. Description: BLI (OCTET), human VTCN1 protein.
On to B5, for which the Kd worked out at 192 nM.
On the same count and under the same terms, in the case of B1 it was 2 nM; in that of B2, 5 nM.
For B3, the Kd is 0.7 nM.
Still for that read-out and setting: for B4 the value was 49 nM.
On the same count and under the same terms, in the case of B6 it was 128 nM.

The next assay shares this target. Description: BLI (OCTET), human VTCN1 protein. This is another data set of the same source.
Consider B7, for which the equilibrium dissociation constant (Kd) came to 28 nM.
Regarding B8, the Kd came to 27 nM.
On the same count and under the same terms, for B9 the value was 36 nM; for B10, 44 nM; for B11, 36 nM.

The next assay addresses T3, human VTCN1 expressed on cells …. Briefly: flow cytometry, antibody titration on 293-huVTCN1 cells.
For the molecule B5, the EC50 worked out at 2.2 nM.
The same measure, in the same setting: in the case of B1 it was 9 nM.
Same read-out and setting: for B2 the value was 4.6 nM; for B3, 1.7 nM; for B4, 2.1 nM.
Same read-out and setting: in the case of B6 it was 1.2 nM.

The target of the next assay is T4, mouse VTCN1 expressed on 293 cells. Briefly: flow cytometry, antibody titration on 293-muVTCN1 cells.
Take B5: the EC50 turned out to be 45 nM.
As for B1, the EC50 stood at 28.5 nM.
On the same count and under the same terms, for B2 the value was 11.4 nM; for B3, 4.8 nM.
Still for that read-out and setting: in the case of B4 it was 3.5 nM; in that of B6, 1.8 nM.

A further assay concerns the target T3, human VTCN1 expressed on cells …. Briefly: flow cytometry, antibody titration on SKBR3 cells (endogenous VTCN1).
As to B5, the response was half-maximal at 36.8 nM (EC50).
On the same count and under the same terms, in the case of B1 it was 35.5 nM; in that of B2, 51.4 nM; in that of B3, 4 nM.
Still for that read-out and setting: in the case of B4 it was 4.4 nM; in that of B6, 1.9 nM.

Another assay has the same target. Briefly: flow cytometry of serially diluted antibody on SKBR3 cells (natural VTCN1), dye-labelled secondary antibody, MFI.
For B11, the “EC50 (read off the curve)” value was around 6 nM.

The target in the next assay is T5, cynomolgus monkey VTCN1 expressed on …. Description: flow cytometry of serially diluted antibody on 293-cynoVTCN1 cells, dye-labelled secondary antibody, MFI.
As to B11, the half-maximal effective concentration (EC50 (read off the curve)) is around 2 nM.

The target in a further assay is T4, mouse VTCN1 expressed on 293 cells. Description: flow cytometry of serially diluted antibody on 293-mouseVTCN1 cells, dye-labelled secondary antibody, MFI.
B11: the binding result was “binds”.

The target of a further assay is T5, cynomolgus monkey VTCN1 expressed on …. Description: flow cytometry, antibody titration on 293-cynoVTCN1 cells.
In turn, B1 came in with a concentration giving a half-maximal response (EC50) of 9 nM.
The same measure, in the same setting: for B2 the value was 5.1 nM.
The same measure, in the same setting: for B3 the value was 2.1 nM; for B4, 1.7 nM.

A further assay has as its target T6, mouse VTCN1 protein. Briefly: BLI (OCTET), mouse VTCN1 protein.
Turning to B1, the Kd amounted to 38 nM.
The same measure, in the same setting: for B2 the value was 56 nM.
On the same count and under the same terms, in the case of B3 it was 27 nM.
The same measure, in the same setting: for B4 the value was 44 nM; for B6, 268 nM.
